Data from patent US20230174659A1 (GENERAL HOSPITAL, published 2023).

Experiments:
[1] = biological target: T1, Amino acid residues 106-125 of human TNFR2 (human); test: ELISA on TNFR2 peptide, antibody alone; Affinity cell of this row is '-'
T1 sequence (peptide): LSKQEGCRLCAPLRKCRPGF

[2] = biological target: T2, Amino acid residues 82-101 of human TNFR2 (human); test: as above
T2 sequence (peptide): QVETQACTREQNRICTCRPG

[3] = biological target: T3, Amino acid residues 74-93 of human TNFR2 (human); test: as above
T3 sequence (peptide): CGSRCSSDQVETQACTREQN

[4] = biological target: T4, Amino acid residues 66-85 of human TNFR2 (human); test: as above
T4 sequence (peptide): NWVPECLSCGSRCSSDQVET

[5] = biological target: T1, Amino acid residues 106-125 of human TNFR2 (human); test: ELISA, immobilised TNFR2 peptide fragments, TNFRAG1 as primary antibody
[6] = biological target: T5, Amino acid residues 108-127 of human TNFR2 (human); test: as above
T5 sequence (peptide): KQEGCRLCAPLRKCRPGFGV

[7] = biological target: T2, Amino acid residues 82-101 of human TNFR2 (human); test: as above
[8] = biological target: T6, Amino acid residues 34-53 of human TNFR2 (human); test: as above
T6 sequence (peptide): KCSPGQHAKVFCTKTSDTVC

[9] = biological target: T7, Amino acid residues 98-117 of human TNFR2 (human); test: as above
T7 sequence (peptide): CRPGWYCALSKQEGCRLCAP

[10] = biological target: T8, Amino acid residues 26-45 of human TNFR2 (human); test: as above
T8 sequence (peptide): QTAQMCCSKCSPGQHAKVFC

[11] = biological target: T3, Amino acid residues 74-93 of human TNFR2 (human); test: as above
[12] = biological target: T4, Amino acid residues 66-85 of human TNFR2 (human); test: as above
[13] = biological target: T9, Amino acid residues 17-36 of human TNFR2 (human); test: ELISA on TNFR2 peptide, antibody alone
T9 peptide: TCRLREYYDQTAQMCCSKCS
Experimental: (§1) ELISA was also used to determine linear epitopes present on the extracellular surface of TNFR2. Linear peptides corresponding to various regions within the TNFR2 primary sequence were purchased from GenScript (Piscataway, NJ), diluted in coating buffer and placed on Immulon 4HBX Flat Bottom Microtiter Plates (Thermo Scientific) at a concentration of 1 µg/well. Primary TNFR2 agonistic antibodies (0.1 µg/well) were incubated with substrates. Secondary antibodies against rodent IgG were used to detect the primary antibodies. Absorbance was measured using the SPECTRAMAX^{®} 190 Absorbance Plate Reader and analyzed with SoftMax Pro 6.3 (Molecular Devices).

[14] = biological target: T10, Amino acid residues 9-28 of human TNFR2 (human); test: ELISA on TNFR2 peptide, antibody alone
T10 peptide: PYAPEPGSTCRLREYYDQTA
Experimental: as §1

[15] = biological target: T11, Amino acid residues 50-69 of human TNFR2 (human); test: ELISA on TNFR2 peptide, antibody alone
T11 peptide: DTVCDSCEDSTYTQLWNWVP
Experimental: as §1

[16] = biological target: T12, Amino acid residues 58-77 of human TNFR2 (human); test: ELISA on TNFR2 peptide, antibody alone
T12 peptide: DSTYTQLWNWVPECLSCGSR
Experimental: as §1

[17] = biological target: T13, Amino acid residues 42-61 of human TNFR2 (human); test: ELISA on TNFR2 peptide, antibody alone
T13 peptide: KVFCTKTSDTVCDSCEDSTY
Experimental: as §1

[18] = biological target: T14, Amino acid residues 170-189 of human TNFR2 (human); test: ELISA on TNFR2 peptide, antibody alone
T14 peptide: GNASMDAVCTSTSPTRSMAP
Experimental: as §1

[19] = biological target: T15, Amino acid residues 130-149 of human TNFR2 (human); test: ELISA on plate-coated linear peptide S04076
T15 peptide: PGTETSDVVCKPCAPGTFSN
Experimental: as §1

[20] = biological target: T16, Amino acid residues 162-181 of human TNFR2 (human); test: ELISA on plate-coated linear peptide S04080
T16 peptide: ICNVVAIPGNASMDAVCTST
Experimental: as §1

[21] = biological target: T17, Amino acid residues 154-174 of human TNFR2 (human); test: ELISA on plate-coated linear peptide S04079
T17 construct: The printed range 154-174 spans 21 residues, but the printed peptide has 20
T17 peptide: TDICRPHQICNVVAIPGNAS
Experimental: as §1

[22] = biological target: T1, Amino acid residues 106-125 of human TNFR2 (human); test: ELISA on plate-coated linear peptide S04073
[23] = biological target: T5, Amino acid residues 108-127 of human TNFR2 (human); test: ELISA on plate-coated linear peptide S03935
[24] = biological target: T15, Amino acid residues 130-149 of human …; test: ELISA, immobilised TNFR2 peptide fragments, TNFRAG1 as primary antibody
Experimental: (§2) The binding of antibody to each of the synthesized peptides was tested in an ELISA format. Surface-immobilized peptide arrays were incubated with primary antibody solution (overnight at 4° C.). After washing, the peptide arrays were incubated with a 1/1000 dilution of an appropriate antibody peroxidase conjugate (SBA) for one hour at 25° C. After washing, the peroxidase substrate 2,2′-azino-di-3- ethylbenzthiazoline sulfonate (ABTS) and 2 µl/ml of 3 percent H₂O₂ were added. After one hour, the color development was measured. The color development was quantified with a charge coupled device (CCD) - camera and an image processing system. The values obtained from the CCD camera range from 0 to 3000 mAU, similar to a standard 96-well plate ELISA-reader.
(§3) Affinity is reported qualitatively using a categorical four-point scale, such that an affinity score of “0” denotes lowest affinity and an affinity score of “4” denotes highest affinity.

[25] = biological target: T16, Amino acid residues 162-181 of human …; test: as above
Experimental: as §2, §3

[26] = biological target: T18, Amino acid residues 90-109 of human TNFR2 (human); test: as above
T18 peptide: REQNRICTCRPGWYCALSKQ
Experimental: as §2, §3

[27] = biological target: T9, Amino acid residues 17-36 of human TNFR2; test: as above
Experimental: as §2, §3

[28] = biological target: T19, Amino acid residues 1-20 of human TNFR2 (human); test: as above
T19 peptide: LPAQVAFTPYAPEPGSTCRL
Experimental: as §2, §3

[29] = biological target: T20, Amino acid residues 114-133 of human TNFR2 (human); test: as above
T20 peptide: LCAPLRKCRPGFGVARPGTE
Experimental: as §2, §3

[30] = biological target: T10, Amino acid residues 9-28 of human TNFR2; test: as above
Experimental: as §2, §3

[31] = biological target: T21, Amino acid residues 146-165 of human TNFR2 (human); test: as above
T21 peptide: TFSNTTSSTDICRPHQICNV
Experimental: as §2, §3

[32] = biological target: T22, Amino acid residues 122-141 of human TNFR2 (human); test: as above
T22 peptide: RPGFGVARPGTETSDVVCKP
Experimental: as §2, §3

[33] = biological target: T23, Amino acid residues 138-157 of human TNFR2 (human); test: as above
T23 peptide: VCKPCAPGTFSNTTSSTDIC
Experimental: as §2, §3

[34] = biological target: T17, Amino acid residues 154-174 of human …; test: as above
Experimental: as §2, §3

[35] = biological target: T11, Amino acid residues 50-69 of human TNFR2; test: as above
Experimental: as §2, §3

[36] = biological target: T12, Amino acid residues 58-77 of human TNFR2; test: as above
Experimental: as §2, §3

[37] = biological target: T13, Amino acid residues 42-61 of human TNFR2; test: as above
Experimental: as §2, §3

[38] = biological target: T14, Amino acid residues 170-189 of human …; test: as above
Experimental: as §2, §3

[39] = biological target: T7, Amino acid residues 98-117 of human TNFR2 (human); test: ELISA on plate-coated linear peptide S04072
[40] = biological target: T6, Amino acid residues 34-53 of human TNFR2 (human); test: ELISA on TNFR2 peptide, antibody alone
[41] = biological target: T7, Amino acid residues 98-117 of human TNFR2 (human); test: ELISA on TNFR2 peptide, antibody alone
[42] = biological target: T8, Amino acid residues 26-45 of human TNFR2 (human); test: ELISA on TNFR2 peptide, antibody alone
[43] = biological target: T20, Amino acid residues 114-133 of human …; test: ELISA on plate-coated linear peptide S04074
Experimental: as §1

[44] = biological target: T7, Amino acid residues 98-117 of human TNFR2 (human); test: ELISA on plate-coated linear peptide S04072; Affinity cell of this row is '1+'
[45] = biological target: T23, Amino acid residues 138-157 of human …; test: ELISA on plate-coated linear peptide S04077
Experimental: as §1

[46] = biological target: T19, Amino acid residues 1-20 of human TNFR2; test: ELISA on plate-coated linear peptide S04062
Experimental: as §1

[47] = biological target: T1, Amino acid residues 106-125 of human TNFR2 (human); test: ELISA on plate-coated linear peptide S04073; Affinity cell of this row is '2+-'
[48] = biological target: T21, Amino acid residues 146-165 of human …; test: ELISA on plate-coated linear peptide S04078
Experimental: as §1

[49] = biological target: T22, Amino acid residues 122-141 of human …; test: ELISA on plate-coated linear peptide S04075
Experimental: as §1

[50] = biological target: T8, Amino acid residues 26-45 of human TNFR2 (human); test: ELISA on plate-coated linear peptide S03933; Affinity cell of this row is '1+'
[51] = biological target: T8, Amino acid residues 26-45 of human TNFR2 (human); test: ELISA on plate-coated linear peptide S03933
[52] = biological target: T5, Amino acid residues 108-127 of human TNFR2 (human); test: ELISA on plate-coated linear peptide S03935; Affinity cell of this row is '2+-'
[53] = biological target: Full-length human TNFR2 (human) (UniProt P20333); test: ELISA, immobilised human TNFR2 / TNFR2 peptide fragments, TNFRAG1 as primary antibody

Reading [1]: 2
Reading [2]: 2
Reading [3]: 2
Reading [4]: 2
Affinity Score (affinity score (0 lowest to 4 highest)) [5]: 2
Affinity Score (affinity score (0 lowest to 4 highest)) [6]: 2
Affinity Score (affinity score (0 lowest to 4 highest)) [7]: 0
Affinity Score (affinity score (0 lowest to 4 highest)) [8]: 0
Affinity Score (affinity score (0 lowest to 4 highest)) [9]: 1
Affinity Score (affinity score (0 lowest to 4 highest)) [10]: 1
Affinity Score (affinity score (0 lowest to 4 highest)) [11]: 0
Affinity Score (affinity score (0 lowest to 4 highest)) [12]: 0
binding result [13]: no binding
binding result [14]: no binding
binding result [15]: no binding
binding result [16]: no binding
binding result [17]: no binding
binding result [18]: no binding
binding result [19]: no binding
binding result [20]: no binding
binding result [21]: no binding
Affinity [22]: 2
Affinity [23]: 2
Affinity Score [24]: 0 affinity score (0 lowest to 4 highest)
Affinity Score [25]: 0 affinity score (0 lowest to 4 highest)
Affinity Score [26]: 2 affinity score (0 lowest to 4 highest)
Affinity Score [27]: 0 affinity score (0 lowest to 4 highest)
Affinity Score [28]: 0 affinity score (0 lowest to 4 highest)
Affinity Score [29]: 0 affinity score (0 lowest to 4 highest)
Affinity Score [30]: 0 affinity score (0 lowest to 4 highest)
Affinity Score [31]: 0 affinity score (0 lowest to 4 highest)
Affinity Score [32]: 0 affinity score (0 lowest to 4 highest)
Affinity Score [33]: 0 affinity score (0 lowest to 4 highest)
Affinity Score [34]: 0 affinity score (0 lowest to 4 highest)
Affinity Score [35]: 0 affinity score (0 lowest to 4 highest)
Affinity Score [36]: 0 affinity score (0 lowest to 4 highest)
Affinity Score [37]: 0 affinity score (0 lowest to 4 highest)
Affinity Score [38]: 0 affinity score (0 lowest to 4 highest)
Affinity [39]: 1
Affinity [40]: 1
Affinity [41]: 1
Reading [41]: 2
Affinity [42]: 1
Reading [42]: 0.1
binding result [43]: no binding
Reading [44]: 0
binding result [45]: no binding
binding result [46]: no binding
Reading [47]: 0
binding result [48]: no binding
binding result [49]: no binding
Reading [50]: 0
Affinity [51]: 1
Reading [52]: 0
Affinity Score (affinity score (0 lowest to 4 highest)) [53]: 4
B1: agonistic TNFR2 antibody TNFRAG1 (antibody, V domains shown)
VH: EVQLQQFGAELVKPGASVKISCKASGYTFTDYNIDWVKQSHGKSLEWIGDINPNYDSTSYSQKFRGKATLTVDKSSSTAYMELRSLTSEDTAVYYCARGNSWYFDVWGAGTTVTVSS
VL: QIVLTQSPALMSASPGEKVTMTCSASSSVRYMYWYQQKPRSSPKPWIYLTSNLASGVPARFSGSGSGTSYSLTISSMEAEDAATYYCQQWSSNPLTFGAGTKLELK
notes: It was detected with secondary antibodies against rodent IgG; also called monoclonal TNFR2 antibody TNFRAG1; TNFR2 agonist antibody
